Where two headings read alike, the source gives them in different places.

Assay in all cases: EMSA
Series [1] has as its target T1, TRF2ΔN (Homo sapiens, UniProt Q15554 87-542).
Series [2] concerns the target T2, TRF1 (Homo sapiens, UniProt P54274 1-439).
Series [3] has as its target T2, TRF1. The source holds these as a separate data set.
The target in series [4] is T1, TRF2ΔN. The source holds these as a separate data set.
The target of series [5] is T2, TRF1. The source holds these as a separate data set.

T2 sequence (P54274 whole entry): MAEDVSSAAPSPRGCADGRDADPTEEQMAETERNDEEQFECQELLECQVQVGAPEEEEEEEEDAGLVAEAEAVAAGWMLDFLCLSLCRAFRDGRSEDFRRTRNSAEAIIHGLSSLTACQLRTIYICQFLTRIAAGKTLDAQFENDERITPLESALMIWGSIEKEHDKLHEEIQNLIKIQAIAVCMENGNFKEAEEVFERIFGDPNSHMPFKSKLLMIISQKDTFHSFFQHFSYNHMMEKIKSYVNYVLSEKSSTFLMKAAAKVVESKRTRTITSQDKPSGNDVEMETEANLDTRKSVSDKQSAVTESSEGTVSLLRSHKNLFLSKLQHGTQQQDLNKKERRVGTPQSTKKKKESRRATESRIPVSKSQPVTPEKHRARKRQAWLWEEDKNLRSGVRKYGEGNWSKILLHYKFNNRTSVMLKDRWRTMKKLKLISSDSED
T1 sequence (Q15554 87-542, stated change not applied): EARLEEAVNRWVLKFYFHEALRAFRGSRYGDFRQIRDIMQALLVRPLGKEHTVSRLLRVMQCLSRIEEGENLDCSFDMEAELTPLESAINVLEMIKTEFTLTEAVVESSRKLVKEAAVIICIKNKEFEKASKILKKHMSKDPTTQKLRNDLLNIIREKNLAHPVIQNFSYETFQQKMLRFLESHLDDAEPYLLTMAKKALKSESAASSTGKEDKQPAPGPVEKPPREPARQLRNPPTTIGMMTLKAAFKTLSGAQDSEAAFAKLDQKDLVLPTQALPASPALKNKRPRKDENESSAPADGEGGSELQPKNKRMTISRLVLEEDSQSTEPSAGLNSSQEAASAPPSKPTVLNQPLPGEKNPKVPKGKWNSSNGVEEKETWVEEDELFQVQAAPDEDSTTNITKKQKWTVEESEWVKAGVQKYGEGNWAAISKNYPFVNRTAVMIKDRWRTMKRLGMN

B1: CTRL (dsDNA)
DNA 1: GTGGATCCGTACTTAGGGTTAGGGTTAACACGAATTCGA
DNA 2: TCGAATTCGTGTTAACCCTAACCCTAAGTACGGATCCAC
As for B1, the binding signal in series [1] worked out at 55 % bound at 100 nM TRF2ΔN; in series [2] it was 61 ± 6 % bound at 25 nM TRF1.

B2: 8oxoG1-1 (dsDNA)
DNA 1: GTGGATCCGTACTTAGGGTTAGGGTTAACACGAATTCGA
DNA 2: TCGAATTCGTGTTAACCCTAACCCTAAGTACGGATCCAC
modifications: 8-oxoG at positions 17, 23 of strand 1
Consider B2, for which the binding signal in series [3] was 18 fold decrease in % bound vs control at 25 nM TRF1.

B3: 8oxoG1 (dsDNA)
DNA 1: GTGGATCCGTACTTAGGGTTAGGGTTAACACGAATTCGA
DNA 2: TCGAATTCGTGTTAACCCTAACCCTAAGTACGGATCCAC
modifications: 8-oxoG at position 17 of strand 1
For the molecule B3, the binding signal in series [1] came out at 11 % bound at 100 nM TRF2ΔN; in series [2], 31 ± 6 % bound at 25 nM TRF1.

B4: 8oxoG3 (dsDNA)
DNA 1: GTGGATCCGTACTTAGGGTTAGGGTTAACACGAATTCGA
DNA 2: TCGAATTCGTGTTAACCCTAACCCTAAGTACGGATCCAC
modifications: 8-oxoG at positions 16, 17, 18 of strand 1
With B4, in series [2], the binding signal was 21 fold decrease in % bound vs control at 25 nM TRF1.

B5: 8oxoG2 (dsDNA)
DNA 1: GTGGATCCGTACTTAGGGTTAGGGTTAACACGAATTCGA
DNA 2: TCGAATTCGTGTTAACCCTAACCCTAAGTACGGATCCAC
modifications: 8-oxoG at positions 17, 18 of strand 1
On to B5, for which the binding signal was 17 % bound at 100 nM TRF2ΔN in series [1] and 29 ± 2 % bound at 25 nM TRF1 in series [2].

B6: non-telomeric mixed (MXT/MXB) (dsDNA)
DNA 1: GTGGATCCGTACGATGGTTTTAGGTGAACACGAATTCGA
DNA 2: TCGAATTCGTGTTCACCTAAAACCATCGTACGGATCCAC
As to B6, the binding result in series [4] and in series [5] was “no binding” in each case.

These data come from paper PMC549571.
